Measurements as given in patent US20060089489A1 (MATSUSHITA ELECTRIC INDUSTRIAL, published 2006).

Target: the molecule itself
Assay: CD spectrometry of 300 uM peptide in phosphate buffer pH 7.5 (self-assembly into nanofiber)

B1: Glu-Phe-Ile-Val-Ile-Phe-Lys peptide (EK7aa) (peptide)
peptide: EFIVIFK
notes: Synthetic designed peptide that self-assembles into amyloid-like nanofibers
- binding result: binds
